Assay results from PMC3145545 (Molecular Biology of the Cell, 2011).

B1: Drosophila LC8 (dynein light chain) (natural protein)
chain: MSDRKAVIKNADMSEEMQQDAVDCATQALEKYNIEKDIAAYIKKEFDKKYNPTWHCIVGRNFGSYVTHETRHFIYFYLGQVAILLFKSG
B2: Pac11 1-86 VQ51,52DA (site 1 mutant) (domain or fragment)
chain: MERLKQLEEKRRQLKELRERRKQASLFPGSETMGHHPTEVHAKATMVSVSDATDMEEGSKIQEPQSAYLRRKEVITYDKGIQTDQI
B3: Pac11 1-86 IQ81,82DA (site 2 mutant) (domain or fragment)
chain: MERLKQLEEKRRQLKELRERRKQASLFPGSETMGHHPTEVHAKATMVSVSVQTDMEEGSKIQEPQSAYLRRKEVITYDKGDATDQI

How the values were obtained:
[1] = target: B2; test: AUC
[2] = target: B3; test: AUC
[3] = target: B1; test: native gel or EMSA

Row | stoichiometry N [1] | stoichiometry N [2] | binding result [3] | Binder
1 | 1 LC8 per Pac11 | 1 LC8 per Pac11 | – | B1
2 | – | – | binds | B2
3 | – | – | binds | B3
